Assay results from US8575113.

Tests used:
[1] = molecular target: GST-linker BIR 2 BIR3Ring
[2] = molecular target: GST-XIAP linker BIR 2 [GST: P08515]

Chain of GST-linker BIR 2 BIR3Ring (chain, as listed by the source): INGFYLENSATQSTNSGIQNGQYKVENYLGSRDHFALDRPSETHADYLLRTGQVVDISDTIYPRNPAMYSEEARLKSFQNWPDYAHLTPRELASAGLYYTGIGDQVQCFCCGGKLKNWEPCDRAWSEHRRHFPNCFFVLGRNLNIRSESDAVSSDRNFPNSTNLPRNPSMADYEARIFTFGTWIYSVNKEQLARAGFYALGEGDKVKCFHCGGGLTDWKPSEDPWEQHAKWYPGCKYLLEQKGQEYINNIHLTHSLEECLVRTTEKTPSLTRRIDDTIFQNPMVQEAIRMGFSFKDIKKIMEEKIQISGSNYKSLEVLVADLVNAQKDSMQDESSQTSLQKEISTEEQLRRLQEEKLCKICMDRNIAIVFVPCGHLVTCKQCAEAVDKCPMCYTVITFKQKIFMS

B1: caspase-3 (protein)
chain: SGISLDNSYKMDYPEMGLCIIINNKNFHKSTGMTSRSGTDVDAANLRETFRNLKYEVRNKNDLTREEIVELMRDVSKEDHSKRSSFVCVLLSHGEEGIIFGTNGPVDLKKITNFFRGDRCRSLTGKPKLFIIQACRGTELDCGIETDSGVDDDMACHKIPVEADFLYAYSTAPGYYSWRNSKDGSWFIQSLCAMLKQYADKLEFMHILTRVNRKVATEFESFSFDATFHAKKQIPCIVSMLTKELYFYH
Caspase 3 activity (DEVD-AMC hydrolysis, Vo of AMC fluorescence/sec) [1]: caspase-3 was inhibited by linker-BIR2 or linker BIR2-BIR3-RING of XIAP | Caspase 3 activity (DEVD-AMC hydrolysis, Vo of AMC fluorescence/sec) [2]: caspase-3 was inhibited by linker-BIR2 or linker BIR2-BIR3-RING of XIAP
